This series has as its target PFV integrase (IN) (prototype foamy virus, UniProt P14350 752-1143). In words: crystal structure.

B1: pre-processed PFV U5 end (17/19 nt) (dsDNA)
DNA 1: TACAAAATTCCATGACA
DNA 2: ATTGTCATGGAATTTTGTA
Regarding B1, the binding result is “binds”.
